{"source": "patent US20240059769A1", "about": "(BIOLOJIC DESIGN, published 2024)", "binders": {"B1": {"name": "BDG33.025 (antibody, V domains shown)", "VH": "QMQLVESGGGVVQPGRSLRLSCAASGFTFRTYGMHWVRQAPGKGLEWVADIWYDGSNKHYADSVKGRFTITRDNSKNTLNLQMNSLRAEDTAVYYCARAPQWYLVAEPFDLWGQGTMVTVSS", "VL": "SYVLTQPPSVSVAPGQTARITCGGNLIGSKLVHWYQQKPGQAPVLVVYDDSDRPSLIPERFSGSNSGNTATLTISRVEAGDEADYYCQVWDSSSDGVVFGGGTKLTVL", "notes": "standard IgG; also called BGD33.025; BDG33.0025"}, "B2": {"name": "BDG33.023 (antibody, V domains shown)", "VH": "B1 VH with T28A, D50V, K58T, V105S, P108A", "VL": "B1 VL with L56R, S92H, G96H", "notes": "standard IgG; also called BGD33.023; BDG33.0023"}, "B3": {"name": "TSLP-R-Fc tag (Fc fusion, UniProt Q9HC73 23-231, looked up)", "chain": "QGGAAEGVQIQIIYFNLETVQVTWNASKYSRTNLTFHYRFNGDEAYDQCTNYLLQEGHTSGCLLDAEQRDDILYFSIRNGTHPVFTASRWMVYYLKPSSPKHVRFSWHQDAVTVTCSDLSYGDLLYEVQYRSPFDTEWQSKQENTCNVTIEGLDAEKCYSFWVRVKAMEDVYGPDTYPSDWSEVTCWQRGEIRDACAETPTPPKPKLSK", "notes": "bought; also called TSLP receptor; not shown: Fc tag"}}, "key": {"IL-2 [1]": {"molecular_target": "T1, IL-2 (Homo sapiens (Human), UniProt P60568 21-153)", "T1 sequence (P60568 21-153 limits assumed)": "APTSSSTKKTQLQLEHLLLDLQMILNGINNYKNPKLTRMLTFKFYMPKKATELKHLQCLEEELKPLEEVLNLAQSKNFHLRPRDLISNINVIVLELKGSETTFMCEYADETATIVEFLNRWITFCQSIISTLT", "test": "specificity ELISA, 250 ng ligand coated"}, "[2]": {"molecular_target": "T2, recombinant cynomolgus monkey IL-13 (cynomolgus monkey, UniProt Q0PW92 21-132)", "T2 construct": "bought; also called rc-IL-13; cIL-13", "T2 sequence (Q0PW92 entry or part of it)": "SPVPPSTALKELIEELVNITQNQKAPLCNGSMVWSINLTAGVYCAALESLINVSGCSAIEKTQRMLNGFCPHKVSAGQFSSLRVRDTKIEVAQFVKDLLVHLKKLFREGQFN", "test": "ELISA, ligand coated, IgG 1-1000 nM"}, "[3]": {"molecular_target": "T3, cynomolgus monkey (cyno) TSLP (cynomolgus monkey, UniProt A0A7N9CAT7 29-159)", "T3 construct": "also called cTSLP; cynomolgus TSLP", "T3 sequence (A0A7N9CAT7 entry or part of it)": "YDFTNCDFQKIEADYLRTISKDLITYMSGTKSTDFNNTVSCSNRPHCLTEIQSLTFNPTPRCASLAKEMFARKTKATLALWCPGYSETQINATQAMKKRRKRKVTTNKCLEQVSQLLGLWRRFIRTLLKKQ", "test": "ELISA, ligand coated, IgG 1-1000 nM"}, "human TSLP [4]": {"molecular_target": "T4, human TSLP (human, UniProt Q969D9 29-159)", "T4 construct": "also called hTSLP; rhTSLP", "test": "ELISA, ligand coated, IgG 1-1000 nM"}, "recombinant human IL-13 [5]": {"molecular_target": "T5, recombinant human IL-13 (human, UniProt P35225 35-146)", "T5 construct": "also called rh-IL-13; hIL-13", "T5 sequence (P35225 35-146 limits assumed)": "as the sequence (Q0PW92 entry or part of it) above, with S1G, K10R, V42M, N67S, R83H, V100L counted along it", "test": "SPR (Biacore T200), antibody captured, hIL-13 analyte 20-0.6 nM", "experimental": "Recombinant cyno IL-13 (rc-IL-13) was tested at 200 nM with a 2-fold dilution (FIGS. 5C-5D)."}, "BSA": {"molecular_target": "BSA (UniProt P02769 25-607)", "sequence (P02769 25-607 limits assumed)": "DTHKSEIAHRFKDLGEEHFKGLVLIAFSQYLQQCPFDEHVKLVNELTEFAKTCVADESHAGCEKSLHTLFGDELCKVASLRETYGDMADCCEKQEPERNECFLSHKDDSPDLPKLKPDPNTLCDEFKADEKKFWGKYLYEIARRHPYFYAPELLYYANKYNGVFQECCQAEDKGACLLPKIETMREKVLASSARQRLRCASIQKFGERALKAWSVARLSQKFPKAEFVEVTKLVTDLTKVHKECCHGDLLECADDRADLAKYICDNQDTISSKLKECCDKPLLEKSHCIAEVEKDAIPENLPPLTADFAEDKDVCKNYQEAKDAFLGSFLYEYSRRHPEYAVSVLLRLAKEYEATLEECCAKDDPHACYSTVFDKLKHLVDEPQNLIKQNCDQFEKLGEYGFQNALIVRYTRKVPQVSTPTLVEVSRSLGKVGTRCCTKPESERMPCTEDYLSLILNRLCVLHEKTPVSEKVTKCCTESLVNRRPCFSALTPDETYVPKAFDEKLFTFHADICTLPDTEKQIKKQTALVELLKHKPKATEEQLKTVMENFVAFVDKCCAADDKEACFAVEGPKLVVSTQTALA", "test": "ELISA, 250 ng coated ligand per well, 100 nM IgG, anti-human Fc-HRP"}, "recombinant human IL-13 [6]": {"molecular_target": "T5, recombinant human IL-13", "test": "cell-based or functional assay"}, "recombinant human IL-13 [7]": {"molecular_target": "T5, recombinant human IL-13", "test": "SPR"}, "hTSLP-His [8]": {"molecular_target": "T6, hTSLP-His (human, UniProt Q969D9 29-159, limits assumed)", "T6 construct": "bought; also called hTSLP (ACROBiosystems TSP-H52Hb); not shown: His tag", "test": "competition ELISA, TSLP-R-Fc coated, 3 nM hTSLP-His pre-mixed with IgG"}, "human TSLP [9]": {"molecular_target": "T4, human TSLP", "test": "SPR"}, "IL-2 [10]": {"molecular_target": "T1, IL-2", "test": "ELISA, 250 ng coated ligand per well, 100 nM IgG, anti-human Fc-HRP"}, "IL-4": {"molecular_target": "T7, IL-4 (Homo sapiens (Human), UniProt P05112 25-153)", "T7 sequence": "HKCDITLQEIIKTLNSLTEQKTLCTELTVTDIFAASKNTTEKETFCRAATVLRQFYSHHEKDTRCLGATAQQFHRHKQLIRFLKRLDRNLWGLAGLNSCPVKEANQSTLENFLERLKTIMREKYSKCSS", "test": "ELISA, 250 ng coated ligand per well, 100 nM IgG, anti-human Fc-HRP"}, "hTSLP-His [11]": {"molecular_target": "T6, hTSLP-His", "test": "cell-based or functional assay"}, "hTSLP-His [12]": {"molecular_target": "T6, hTSLP-His", "test": "competition ELISA, TSLP-R coated, soluble TSLP-R as competitor for hTSLP"}}, "note": "Where a chain is given by its changes, count along the chain named."}
{"binder": "B1", "values": [{"measurement": "binding result", "setting": "IL-2 [1]", "value": "no binding (tested: 100 nM IgG)"}, {"measurement": "EC50", "setting": "[2]", "value": 1.5, "unit": "nM"}, {"measurement": "EC50", "setting": "[3]", "value": 148, "unit": "nM"}, {"measurement": "EC50", "setting": "human TSLP [4]", "value": 12.8, "unit": "nM"}, {"measurement": "Kd", "setting": "recombinant human IL-13 [5]", "value": 0.903, "unit": "nM"}, {"measurement": "koff", "setting": "recombinant human IL-13 [5]", "value": 0.0036, "unit": "s⁻¹"}, {"measurement": "kon", "setting": "recombinant human IL-13 [5]", "value": "4.07e+06", "unit": "M⁻¹ s⁻¹"}, {"measurement": "binding result", "setting": "BSA", "value": "no binding (tested: 100 nM)"}, {"measurement": "IC50, HEK-Blue IL-4/IL-13 reporter (0.4 nM rh-IL-13)", "setting": "recombinant human IL-13 [6]", "value": 25, "unit": "nM"}]}
{"binder": "B2", "values": [{"measurement": "Kd", "setting": "recombinant human IL-13 [7]", "value": 3.01, "unit": "nM"}, {"measurement": "koff", "setting": "recombinant human IL-13 [7]", "value": 0.00457, "unit": "s⁻¹"}, {"measurement": "kon", "setting": "recombinant human IL-13 [7]", "value": "1.52e+06", "unit": "M⁻¹ s⁻¹"}, {"measurement": "EC50", "setting": "[2]", "value": 7.1, "unit": "nM"}, {"measurement": "EC50", "setting": "[3]", "value": 8.2, "unit": "nM"}, {"measurement": "EC50", "setting": "human TSLP [4]", "value": 2.5, "unit": "nM"}, {"measurement": "IC50", "setting": "hTSLP-His [8]", "value": 0.41, "unit": "nM"}, {"measurement": "Kd", "setting": "recombinant human IL-13 [5]", "value": 3.65, "unit": "nM"}, {"measurement": "koff", "setting": "recombinant human IL-13 [5]", "value": 0.0157, "unit": "s⁻¹"}, {"measurement": "kon", "setting": "recombinant human IL-13 [5]", "value": "4.31e+06", "unit": "M⁻¹ s⁻¹"}, {"measurement": "Kd", "setting": "human TSLP [9]", "value": 0.0625, "unit": "nM"}, {"measurement": "koff", "setting": "human TSLP [9]", "value": "6.84e-05", "unit": "s⁻¹"}, {"measurement": "kon", "setting": "human TSLP [9]", "value": "1.09e+06", "unit": "M⁻¹ s⁻¹"}, {"measurement": "binding result", "setting": "BSA", "value": "no binding (tested: 100 nM)"}, {"measurement": "binding result", "setting": "IL-2 [10]", "value": "no binding (tested: 100 nM)"}, {"measurement": "binding result", "setting": "IL-4", "value": "no binding (tested: 100 nM)"}, {"measurement": "IC50, HEK-Blue IL-4/IL-13 reporter (0.4 nM rh-IL-13)", "setting": "recombinant human IL-13 [6]", "value": 1.3, "unit": "nM"}, {"measurement": "IC50, TSLP dependent pSTAT5 activation in MUTZ5 cells (14 pM TSLP)", "setting": "hTSLP-His [11]", "value": 13, "unit": "pM"}]}
{"binder": "B3", "values": [{"measurement": "IC50", "setting": "hTSLP-His [12]", "value": 3, "unit": "nM"}]}
